Common to all, as to assay: luciferase complementation assay
The target in assay [1] is N2-SKAP2 (SRC kinase adaptor phosphoprotein 2, wildtype) (UniProt O75563). Particulars: HEK293T cells, read off a plot.
Assay [2] addresses DomDIM1 SKAP1 mutant (DIM domain of SKAP1). The following applies: HEK293T cells; read off a plot.
The target in assay [3] is N2-SKAP2 DomDIM2 deletion mutant (DIM domain alone). Particulars: HEK293T cells; read off a plot.
Assay [4] has as its target C1-fused SRC kinases (mean among the nine SRC kinases). Particulars: HEK293T cells.
The target in assay [5] is N1-fused SRC kinases (mean among the nine SRC kinases). Particulars: HEK293T cells.

Turning to “N1-fused HCK (hematopoietic cell kinase), wildtype (from UniProt P08631-2) I309A; T311A”, the response (NLR normalized to HCK-N1) was 1 in assay [1], 0.65 in assay [2] and 0.9 in assay [3].
Take “N2-SKAP2 (SRC kinase adaptor phosphoprotein 2, wildtype) (from UniProt O75563) W336K”: the ratio to parent in assay [4] was found to be 1.48; in assay [5], 1.64.
“N1-fused HCK (hematopoietic cell kinase), wildtype (from UniProt P08631-2) Y501F”: the response (NLR normalized to HCK-N1) in assay [2] worked out at 7; in assay [3], 6.4.
Turning to “N2-SKAP2 (SRC kinase adaptor phosphoprotein 2, wildtype) (from UniProt O75563) R140M”, the ratio to parent in assay [4] came to 0.79; in assay [5], 0.96.
With “N2-SKAP2 (SRC kinase adaptor phosphoprotein 2, wildtype) (from UniProt O75563) D129K”, the ratio to parent in assay [4] was determined as 2.27; in assay [5], 1.55.
In the same order, the values of “N2-SKAP2 (SRC kinase adaptor phosphoprotein 2, wildtype) (from UniProt O75563) Y75F; Y237F; Y261F” are 1.01 and 0.76.
In the same order, the values of “N2-SKAP2 (SRC kinase adaptor phosphoprotein 2, wildtype) (from UniProt O75563) K161E” are 0.9 and 1.12.
As to “C1-fused HCK (hematopoietic cell kinase), wildtype (from UniProt P08631-2) I309A; T311A”, the response (normalized NLR) in assay [1] (parent: est. 85) is 16. Moreover, the results for the response (NLR normalized to HCK-N1) in assay [1], in assay [2] and in assay [3] were 0.1, 0.07 and 0.29, respectively.
“N2-SKAP2 (SRC kinase adaptor phosphoprotein 2, wildtype) (from UniProt O75563) Y151F; Y197F”: the ratio to parent in assay [4] was found to be 0.71; in assay [5] it was 0.8.
Regarding “C1-fused HCK (hematopoietic cell kinase), wildtype (from UniProt P08631-2) Y390F”, the response (NLR normalized to HCK-N1) in assay [2] turned out to be 0.42; in assay [3], 3.8.
Turning to “N2-SKAP2 (SRC kinase adaptor phosphoprotein 2, wildtype) (from UniProt O75563) R140M; D129K”, the ratio to parent in assay [4] was determined as 0.86; in assay [5], 0.84.
As to “C1-fused HCK (hematopoietic cell kinase), wildtype (from UniProt P08631-2) R150A”, the response (NLR normalized to HCK-N1) turned out to be 2.9 in assay [2] and 8.4 in assay [3].
In turn, “N1-fused HCK (hematopoietic cell kinase), wildtype (from UniProt P08631-2) Y390F” had a response (NLR normalized to HCK-N1) in assay [2] of 0.7.
As to “N2-SKAP2 (SRC kinase adaptor phosphoprotein 2, wildtype) (from UniProt O75563) E15A; R18A; V24D; F27G; V28E”, the ratio to parent in assay [4] was 0.48; in assay [5], 0.41.
In the case of “N2-SKAP2 (SRC kinase adaptor phosphoprotein 2, wildtype) (from UniProt O75563) V24D; F27G; V28E; D129K”, the ratio to parent amounted to 1.04 in assay [4] and 0.93 in assay [5].
The corresponding values for “N2-SKAP2 (SRC kinase adaptor phosphoprotein 2, wildtype) (from UniProt O75563) E15A; R18A” are 1.19 and 1.3.
In the case of “N1-fused HCK (hematopoietic cell kinase), wildtype (from UniProt P08631-2) R150A”, the response (NLR normalized to HCK-N1) in assay [2] was found to be 8.4; in assay [3], 7.7.
Take “N2-SKAP2 (SRC kinase adaptor phosphoprotein 2, wildtype) (from UniProt O75563) D129K; Y75F; Y237F; Y261F”: the ratio to parent in assay [4] came out at 1.63; in assay [5], 0.88.
For “N2-SKAP2 (SRC kinase adaptor phosphoprotein 2, wildtype) (from UniProt O75563) V24D; F27G; V28E”, the ratio to parent in assay [4] turned out to be 0.41; in assay [5] it was 0.43.
In assay [3], “N1-fused HCK (hematopoietic cell kinase), wildtype (from UniProt P08631-2) W234A” showed a response (NLR normalized to HCK-N1) of 0.6.
Take “N1-fused HCK (hematopoietic cell kinase), wildtype (from UniProt P08631-2) Y30F”: the response (NLR normalized to HCK-N1) is 0.9 in assay [2] and 1.2 in assay [3].
For the substance “C1-fused HCK (hematopoietic cell kinase), wildtype (from UniProt P08631-2) Y501F”, the values for the response (NLR normalized to HCK-N1) in assay [2] and in assay [3] were 3.8 and 7.7, respectively.
The corresponding values for “C1-fused HCK (hematopoietic cell kinase), wildtype (from UniProt P08631-2) Y30F” are 0.055 and 0.13.
